Assays:
Bacteroidales = test: Microbiota analysis of broiler trial 4 (16S rRNA), Bacteroidales; format: in vivo, chicken; set-up: key to Observed shift compared to the control group, Significance: Significant change (+++), padj < 0.05; Numerical change (+); details: 50 ppm
[1] = In vivo broiler trial 3, growth performance; set-up: species or system male broiler chickens; Motality: unit not given here
Experimental: The in vivo trial was carried out as described in example 7, except the feed was supplemented with the GH25 lysozyme (SEQ ID NO: 1) at 12.5 or 25 mg per kg feed, the GH24 lysozyme (SEQ ID NO: 4) at 12.5 or 25 mg per kg feed or with Avilamycin at an inclusion level of 10 mg/kg. No additional enzymes (e.g. phytase) were added to the feed. The experimental diets (Starter, Grower and Finisher) were based on soybean meal, wheat and rye (12%) as main ingredients (Table 8). The diets were formulated to contain 225 g crude protein and 12.5 MJ/kg MEN for the starter period, 215 g crude protein and 12.8 MJ/kg MEN for the grower period and 205 g crude protein and 13.0 MJ/kg MEN for the finisher period.

[2] = Finisher (d 36-42), 12.5 mg/kg feed
[3] = Finisher (d 36-42), 25 mg/kg feed
[4] = Grower (d 22-36), 12.5 mg/kg feed
[5] = Grower (d 22-36), 25 mg/kg feed
[6] = Starter (d 1-22), 12.5 mg/kg feed
[7] = Starter (d 1-22), 25 mg/kg feed
[8] = Whole period (d 1-42), 12.5 mg/kg feed
[9] = Whole period (d 1-42), 25 mg/kg feed

B1: SEQ ID NO: 1: mature amino acid sequence of a wild type GH25 lysozyme from Acremonium alcalophilum with N-terminal SPIRR (protein)
chain: SPIRRRIPGFDISGWQPTTDFARAYANGDRFVYIKATEGTTFKSSAFSRQYTGATQNGFIRGAYHFAQPAASSGAAQARYFASNGGGWSKDGITLPGALDIEYNPNGATCYGLSQSAMVNWIEDFVTTYHGITSRWPVIYTTTDWWTQCTGNSNRFANRCPLWIARYASSVGTLPNGWGFYTFWQYNDKYPQGGDSNWFNGDASRLRALANGD
modifications: Wild type sequence with N-terminal SPIRR
Bacteroidales; Order level (Bacteroidales)
  Observed shift compared to the control group, Significance: +
Bacteroidales; order level
  Bacteroidales Change vs control: −15.8551
  Bacteroidales Ratio vs control: 0.7538
Bacteroidales; order level, ceca content
  Bacteroidales abundance, Lysozyme treatment: 48.5437
[1]; 12.5 mg/kg
  Benefit over the NC diet: did not show any benefit
[1]; [2]
  FCR: 1.953
  FCR, Relative to C (%): 99.6%
  Feed intake: 1544 g/b
  Feed intake, Relative to C (%): 103.8%
  Weight gain: 794 g/b
  Weight gain, Relative to C (%): 104.2%
[1]; [3]
  FCR: 1.968
  FCR, Relative to C (%): 100.4%
  Feed intake: 1522 g/b
  Feed intake, Relative to C (%): 102.3%
  Weight gain: 775 g/b
  Weight gain, Relative to C (%): 101.8%
[1]; [4]
  FCR: 1.734
  FCR, Relative to C (%): 100.6%
  Feed intake: 2365 g/b
  Feed intake, Relative to C (%): 103.5%
  Weight gain: 1365 g/b
  Weight gain, Relative to C (%): 102.8%
[1]; [5]
  FCR: 1.692
  FCR, Relative to C (%): 98.2%
  Feed intake: 2308 g/b
  Feed intake, Relative to C (%): 101.0%
  Weight gain: 1364 g/b
  Weight gain, Relative to C (%): 102.7%
[1]; [6]
  FCR: 1.466
  FCR, Relative to C (%): 101.8%
  Feed intake: 1621 g/b
  Feed intake, Relative to C (%): 102.7%
  Weight gain: 1106 g/b
  Weight gain, Relative to C (%): 100.9%
[1]; [7]
  FCR: 1.413
  FCR, Relative to C (%): 98.1%
  Feed intake: 1596 g/b
  Feed intake, Relative to C (%): 101.1%
  Weight gain: 1129 g/b
  Weight gain, Relative to C (%): 103.0%
[1]; [8]
  EPEF: 398
  EPEF, Relative to C (%): 95.2%
  FCR: 1.695
  FCR, Relative to C (%): 100.9%
  Feed intake: 5529 g/b
  Feed intake, Relative to C (%): 103.3%
  Motality: 13.1
  Weight gain: 3264 g/b
  Weight gain, Relative to C (%): 102.5%
[1]; [9]
  EPEF: 428
  EPEF, Relative to C (%): 102.4%
  FCR: 1.660
  FCR, Relative to C (%): 98.8%
  Feed intake: 5426 g/b
  Feed intake, Relative to C (%): 101.4%
  Motality: 8.8
  Weight gain: 3269 g/b
  Weight gain, Relative to C (%): 102.6%
[1]; whole period, 25 mg/kg
  EPEF improvement compared to NC diet: 1.7%
  FCR improvement compared to NC diet: 1.4%

Source: patent US10568344B2, “Methods of improving animal performance” (Novozymes A/S, priority 2015, dated 2020)
